Data on 1 substance can be found in patent publication EP4545563A1, “ANTIBODIES TARGETING ITGA2 AND ANTIBODY-DRUG […]” (Foreseen Technology (Beijing) Co., Ltd., priority 2022, dated 2024).

This assay concerns the target ITGA2 protein on the surface of human tumor cells (HuCCT1, A431) (human) (UniProt P17301). The assay can be described thus: cell-based or functional assay.

Sequence of ITGA2 protein on the surface of human tumor cells (HuCCT1, A431) (human) (P17301 30-1181): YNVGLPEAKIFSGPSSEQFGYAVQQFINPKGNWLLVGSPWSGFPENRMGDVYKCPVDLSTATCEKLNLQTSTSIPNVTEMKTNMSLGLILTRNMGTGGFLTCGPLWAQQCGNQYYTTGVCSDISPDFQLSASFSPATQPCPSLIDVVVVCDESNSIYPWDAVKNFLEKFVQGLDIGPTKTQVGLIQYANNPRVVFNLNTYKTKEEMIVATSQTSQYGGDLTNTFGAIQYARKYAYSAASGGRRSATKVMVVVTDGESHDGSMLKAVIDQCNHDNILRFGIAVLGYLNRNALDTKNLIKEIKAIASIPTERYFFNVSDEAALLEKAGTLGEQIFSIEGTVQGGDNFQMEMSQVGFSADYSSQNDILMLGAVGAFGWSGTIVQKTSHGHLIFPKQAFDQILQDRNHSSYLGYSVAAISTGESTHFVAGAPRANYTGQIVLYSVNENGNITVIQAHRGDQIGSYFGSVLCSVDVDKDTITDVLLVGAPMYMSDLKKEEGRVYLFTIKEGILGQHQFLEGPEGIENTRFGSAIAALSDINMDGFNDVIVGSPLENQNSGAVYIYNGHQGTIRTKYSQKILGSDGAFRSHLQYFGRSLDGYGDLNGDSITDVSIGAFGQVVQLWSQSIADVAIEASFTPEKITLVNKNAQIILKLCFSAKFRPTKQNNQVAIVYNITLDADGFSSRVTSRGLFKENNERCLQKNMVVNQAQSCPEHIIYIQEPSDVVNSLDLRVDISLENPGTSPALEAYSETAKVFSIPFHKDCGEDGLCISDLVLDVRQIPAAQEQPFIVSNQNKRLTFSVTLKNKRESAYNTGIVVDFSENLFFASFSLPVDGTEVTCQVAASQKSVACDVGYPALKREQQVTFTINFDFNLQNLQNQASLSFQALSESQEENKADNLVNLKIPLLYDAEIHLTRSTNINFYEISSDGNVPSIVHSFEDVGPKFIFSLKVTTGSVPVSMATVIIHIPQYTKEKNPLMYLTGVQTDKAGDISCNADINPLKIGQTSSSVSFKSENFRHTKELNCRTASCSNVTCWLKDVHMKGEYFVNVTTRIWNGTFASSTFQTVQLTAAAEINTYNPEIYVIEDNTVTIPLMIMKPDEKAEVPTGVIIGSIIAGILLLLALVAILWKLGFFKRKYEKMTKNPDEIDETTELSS

In turn, Vatelizumab-ve-MMAE (antibody) had an A431 cell killing IC50 of 0.08 nM and a HuCC-T1 cell killing IC50 of 0.89 nM.
